B1: BAG-1 (nematode nucleotide exchange factor), fluorescently labelled (natural protein, C. elegans, UniProt O44739 1-210, looked up)
chain: MKVNVSCSSVQTTIDILEENQGEDESILTLGQLRDRIATDNDVDVETMKLLHRGKFLQGADDVSLSTLNFKENDKIIVMGGKNALVDDAGFKMLMQYEKHNLSNLQKAYDLNLRDVADLERGFLEKPKQVEMGKKLEKKVKYFNEEAERHLETLDGMNIITETTPENQAKRNREKRKTLVNGIQTLLNQNDALLRRLQEYQSVLNGDIPE
modifications: ATTO 488 C5-maleimide at its cysteine residue
notes: BAG-1, nucleotide exchange factor of Hsc70 in C. elegans; unlabelled BAG-1 was used in the ATPase assays
B2: Hsc70 S321F (natural protein)
chain: not shown
notes: Hsc70 (HSP-1) of C. elegans, encoded by hsp-1, with the suppressor mutation S321F; forms heterogeneous oligomers; source: expressed from mutated pET28b-Hsc70 (QuickChange PCR), purified (Ni-NTA, ion-exchange, size exclusion chromatography)

Columns and labels:
Hsc70 D233N = target: T1, Hsc70 D233N (C. elegans, UniProt P09446 1-640, D233N); experiment: AUC; sedimentation velocity with fluorescence detection, 300 nM *BAG-1 with 2 µM Hsc70 variant, 42,000 rpm, 20 °C, 40 mM HEPES/KOH pH 7.5, 150 mM KCl, 1 mM DTT, 5 mM MgCl2; without nucleotide, and with ADP (complex diminished); settings: both partners purified
T1 construct: Hsc70 (HSP-1) of C. elegans, encoded by hsp-1, with the suppressor mutation D233N; Mutation was found in a mutagenesis screen as a suppressor of unc-23(e25); source: expressed from mutated pET28b-Hsc70 (QuickChange PCR), purified (Ni-NTA, ion-exchange, size exclusion chromatography)
T1 sequence (P09446 whole entry D233N): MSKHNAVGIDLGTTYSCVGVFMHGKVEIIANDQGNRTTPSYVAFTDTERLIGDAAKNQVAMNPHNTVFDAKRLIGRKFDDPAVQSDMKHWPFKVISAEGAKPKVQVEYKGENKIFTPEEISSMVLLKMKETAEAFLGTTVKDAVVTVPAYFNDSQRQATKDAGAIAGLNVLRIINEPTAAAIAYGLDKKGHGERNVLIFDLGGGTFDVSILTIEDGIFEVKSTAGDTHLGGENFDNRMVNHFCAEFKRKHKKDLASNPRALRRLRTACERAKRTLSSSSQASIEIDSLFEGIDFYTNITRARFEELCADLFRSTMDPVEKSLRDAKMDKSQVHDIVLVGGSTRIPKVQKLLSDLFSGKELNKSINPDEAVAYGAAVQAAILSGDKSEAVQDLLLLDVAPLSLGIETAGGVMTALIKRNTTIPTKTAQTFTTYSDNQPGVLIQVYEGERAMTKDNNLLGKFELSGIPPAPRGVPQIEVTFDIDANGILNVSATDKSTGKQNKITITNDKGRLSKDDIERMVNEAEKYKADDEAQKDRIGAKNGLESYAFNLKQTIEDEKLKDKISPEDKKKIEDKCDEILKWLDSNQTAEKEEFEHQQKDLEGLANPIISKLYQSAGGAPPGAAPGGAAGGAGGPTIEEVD

[1] = target: T2, wild type Hsc70 (nematode Hsc70, HSP-1) (C. elegans, UniProt P09446 1-640); experiment: as above; settings: both partners purified
T2 construct: Hsc70 (HSP-1) of C. elegans, encoded by hsp-1, the sole functional Hsc70-like protein of the nematode; About 70 kDa by ultracentrifugation; also called Hsc70 wild type; CeHsc70; source: expressed from pET28b-Hsc70, purified (Ni-NTA, ion-exchange, size exclusion chromatography)
T2 sequence (P09446 whole entry): as the sequence (P09446 whole entry D233N) above, with N233D counted along it

Hsc70 A379V = target: T3, Hsc70 A379V (C. elegans, UniProt P09446 1-640, A379V); experiment: as above; settings: both partners purified
T3 construct: Hsc70 (HSP-1) of C. elegans, encoded by hsp-1, with the suppressor mutation A379V; Mutation was found in a mutagenesis screen as a suppressor of unc-23(e25); source: expressed from mutated pET28b-Hsc70 (QuickChange PCR), purified (Ni-NTA, ion-exchange, size exclusion chromatography)
T3 sequence (P09446 whole entry A379V): as the sequence (P09446 whole entry D233N) above, with N233D, A379V counted along it

Hsc70 D384N = target: T4, Hsc70 D384N (C. elegans, UniProt P09446 1-640, D384N); experiment: as above; settings: both partners purified
T4 construct: Hsc70 (HSP-1) of C. elegans, encoded by hsp-1, with the suppressor mutation D384N; Mutation was identified as a suppressor of unc-23(ok1408); source: expressed from mutated pET28b-Hsc70 (QuickChange PCR), purified (Ni-NTA, ion-exchange, size exclusion chromatography)
T4 sequence (P09446 whole entry D384N): as the sequence (P09446 whole entry D233N) above, with N233D, D384N counted along it

[2] = target: the molecule itself; experiment: AUC; sedimentation velocity, UV/VIS optics, 0.5 mg/mL protein; dc/dt plots and UltraScan II analysis; oligomerization status of Hsc70 variants

Binder | binding result (Hsc70 D233N) | binding result [1] | binding result (Hsc70 A379V) | binding result (Hsc70 D384N) | binding result [2]
B1 | binds | binds | binds | binds | –
B2 | – | – | – | – | binds

From PMC6697693, “head-bent resistant Hsc70 variants show reduced Hsp40 affinity and altered protein folding activity” (Scientific Reports, 2019)
